Reference: US20250236657A1 (TOSOH, published 2025)

Legend:
AAV2 D528A = biological target: T1, AAV2 D528A (adeno-associated virus serotype 2 (AAV2), UniProt P03135 1-735); test: affinity HPLC, AVR11a immobilization gel, linear pH gradient 6.0 to 2.0, AAV2 peak top
T1 construct: Recombinant AAV2 vector particles in filtered cell lysate

[1] = biological target: T2, AAV2 (wild type), serotype 2 AAV with capsid region VP1 of SEQ ID NO: 99 (adeno-associated virus serotype 2 (AAV2), UniProt P03135 1-735); test: as above
T2 construct: Recombinant AAV2 vector particles (EGFP genome) in filtered cell lysate; the capsid is assembled from VP1, VP2 and VP3

AAV2 R471A = biological target: T3, AAV2 R471A (adeno-associated virus serotype 2 (AAV2), UniProt P03135 1-735); test: as above
T3 construct: Recombinant AAV2 vector particles in filtered cell lysate

AAV2 E499A = biological target: T4, AAV2 E499A (adeno-associated virus serotype 2 (AAV2), UniProt P03135 1-735); test: as above
T4 construct: Recombinant AAV2 vector particles in filtered cell lysate

AAV2 S267A = biological target: T5, AAV2 S267A (adeno-associated virus serotype 2 (AAV2), UniProt P03135 1-735); test: as above
T5 construct: Recombinant AAV2 vector particles in filtered cell lysate

AAV2 Q385A = biological target: T6, AAV2 Q385A (adeno-associated virus serotype 2 (AAV2), UniProt P03135 1-735); test: as above
T6 construct: Recombinant AAV2 vector particles in filtered cell lysate

AAV2 Q263A = biological target: T7, AAV2 Q263A (adeno-associated virus serotype 2 (AAV2), UniProt P03135 1-735); test: as above
T7 construct: Recombinant AAV2 vector particles in filtered cell lysate

AAV2 N382A = biological target: T8, AAV2 N382A (adeno-associated virus serotype 2 (AAV2), UniProt P03135 1-735); test: as above
T8 construct: Recombinant AAV2 vector particles in filtered cell lysate

AAV2 T503S = biological target: T9, AAV2 T503S (adeno-associated virus serotype 2 (AAV2), UniProt P03135 1-735); test: as above
T9 construct: Recombinant AAV2 vector particles in filtered cell lysate

AAV2 S267T = biological target: T10, AAV2 S267T (adeno-associated virus serotype 2 (AAV2), UniProt P03135 1-735); test: as above
T10 construct: Recombinant AAV2 vector particles in filtered cell lysate

AAV2 D529E = biological target: T11, AAV2 D529E (adeno-associated virus serotype 2 (AAV2), UniProt P03135 1-735); test: as above
T11 construct: Recombinant AAV2 vector particles in filtered cell lysate

AAV2 S264A = biological target: T12, AAV2 S264A (adeno-associated virus serotype 2 (AAV2), UniProt P03135 1-735); test: as above
T12 construct: Recombinant AAV2 vector particles in filtered cell lysate

AAV2 S384A = biological target: T13, AAV2 S384A (adeno-associated virus serotype 2 (AAV2), UniProt P03135 1-735); test: as above
T13 construct: Recombinant AAV2 vector particles in filtered cell lysate

AAV2 D529A = biological target: T14, AAV2 D529A (adeno-associated virus serotype 2 (AAV2), UniProt P03135 1-735); test: affinity HPLC on AVR11a column, pH gradient 6.0 to 2.0; no elution peak, not adsorbed and passed through
T14 construct: Recombinant AAV2 vector particles in filtered cell lysate

AAV2 H271A = biological target: T15, AAV2 H271A (adeno-associated virus serotype 2 (AAV2), UniProt P03135 1-735); test: as above
T15 construct: Recombinant AAV2 vector particles in filtered cell lysate

AAV2 H271T = biological target: T16, AAV2 H271T (adeno-associated virus serotype 2 (AAV2), UniProt P03135 1-735); test: as above
T16 construct: Recombinant AAV2 vector particles in filtered cell lysate

AAV2 H271Q = biological target: T17, AAV2 H271Q (adeno-associated virus serotype 2 (AAV2), UniProt P03135 1-735); test: as above
T17 construct: Recombinant AAV2 vector particles in filtered cell lysate

AAV2 H271F = biological target: T18, AAV2 H271F (adeno-associated virus serotype 2 (AAV2), UniProt P03135 1-735); test: as above
T18 construct: Recombinant AAV2 vector particles in filtered cell lysate

AAV2 G383A = biological target: T19, AAV2 G383A (adeno-associated virus serotype 2 (AAV2), UniProt P03135 1-735); test: as above
T19 construct: Recombinant AAV2 vector particles in filtered cell lysate

B1: AAV-binding protein AVR11a with cysteine tag (SEQ ID NO: 100), immobilised as AVR11a immobilization gel (receptor)
chain: MGSAGESDQITLPKNEVQLNVYVLQEPPKGETSTYDWQLITHPRDYSGEMEGEHSQILKLSNLTPGLYEFKAVVEGQNAHSEGYVNVTVEPEPRKNRPPIAIVSPQFQEISLPTTSTVIDGSQSTDDDKIVQYHWEELKGPLREEKISEDTAILKLSKLVPGNYTFRLTVVDSDGATDSTTANLTVNKAVDHHHHHHCRNDTCG
modifications: immobilised on a TOYOPEARL carrier with iodoacetamide groups; cysteine tag sequence serving as immobilization tag at positions 220-226
notes: KIAA0319L PKD1 and PKD2 with 11 substitutions (AVR10s plus Ala330Val); also called AVR11a column
AVR11a column elution time (AAV2 D528A): 55.5 min
AVR11a column elution time [1]: 59.8 min
AVR11a column elution time (AAV2 R471A): 60.3 min
AVR11a column elution time (AAV2 E499A): 59.3 min
AVR11a column elution time (AAV2 S267A): 59.4 min
AVR11a column elution time (AAV2 Q385A): 57.7 min
AVR11a column elution time (AAV2 Q263A): 60.2 min
AVR11a column elution time (AAV2 N382A): 53.5 min
AVR11a column elution time (AAV2 T503S): 55.2 min
AVR11a column elution time (AAV2 S267T): 59.2 min
AVR11a column elution time (AAV2 D529E): 54.5 min
AVR11a column elution time (AAV2 S264A): 59.6 min
AVR11a column elution time (AAV2 S384A): 58.6 min
binding result (AAV2 D529A): no binding
binding result (AAV2 H271A): no binding
binding result (AAV2 H271T): no binding
binding result (AAV2 H271Q): no binding
binding result (AAV2 H271F): no binding
binding result (AAV2 G383A): no binding
